{
  "source": "paper PMC6412877",
  "about": "“Novel Site-Specific Fatty Chain-Modified GLP-1 Receptor Agonist with Potent Antidiabetic Effects” (Molecules, 2019)",
  "data": [
    {"molecular_target": "Glucagon-like peptide-1 receptor extracellular domain", "test": "SPR; Biacore 8K, according to the user's manual; who was immobilised and the conditions are not stated", "units": {"Kd": "nM"}, "values": [
      {"binder": "FFYSSPSAYLETGGPSSGAPPPS", "note": "[PEP07]", "Kd": 24},
      {"binder": "YSHAYLEETQRFGGPSSGAPPPS", "note": "[PEP11]", "Kd": 1250},
      {"binder": "EFIATAWLVKQTGGPSSGAPPPS", "note": "[PEP12]", "Kd": 1090},
      {"binder": "KEYSSPAATQRFGGPSSGAPPPS", "note": "[PEP08]", "Kd": 151},
      {"binder": "FFYSSPSAYLET", "note": "[PEP01]", "Kd": 740},
      {"binder": "KEYSSPAATQRF", "note": "[PEP02]", "Kd": 1050},
      {"binder": "EFIATAWLVKQT", "note": "[PEP06]", "Kd": 2590},
      {"binder": "KQYSSPTAWLVG", "note": "[PEP03]", "Kd": 1750},
      {"binder": "FTSEGTSSYLETGGPSSGAPPPS", "note": "[PEP10]", "Kd": 3000},
      {"binder": "YSHAYLEETQRF", "note": "[PEP05]", "Kd": 2210},
      {"binder": "FTSEGTSSYLET", "note": "[PEP04]", "Kd": 3990}
    ]}
  ]
}
